For data set [1], the system named is HeLa Kyoto. In words: solubility change mitosis vs G1/S (difference of NP-40 vs SDS log2 ratios) (log2 ratio difference); higher = more soluble in mitosis.
Data set [2] concerns HeLa Kyoto. In words: thermal stability score vs G1/S (z-score of summed log2 fold changes over temperatures); higher = more thermally stable than in G1/S.
Data set [3] has as its system HeLa Kyoto. In words: solubility in G1/S (NP-40 vs SDS abundance) (log2 ratio); higher = more soluble. Conditions: cell cycle stage: G1/S.
Data set [4] has as its system HeLa Kyoto. In words: melting temperature (median over replicates), in situ; higher = more thermally stable.
[5] abbreviates: cell cycle stage: early G1 (4.5 h after nocodazole release).

We go through five sequences from the supplement of paper PMC5998384.
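For melting temperature (median over replicates), in situ in this document: HeLa Kyoto cells synchronized by double thymidine or nocodazole block, proteins quantified by TMT10plex mass spectrometry, three independent biological replicates.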
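For solubility change mitosis vs G1/S (difference of NP-40 vs SDS log2 ratios) in this document: synchronized HeLa Kyoto cells (double thymidine block for G1/S, nocodazole release for mitosis), protein amounts in NP-40 versus SDS lysates quantified by mass spectrometry, three biological replicates.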
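For solubility in G1/S (NP-40 vs SDS abundance) in this document: HeLa Kyoto cells arrested at G1/S by double thymidine block, proteins quantified by TMT10plex mass spectrometry in mild NP-40 versus SDS extracts, three biological replicates.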
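For thermal stability score vs G1/S (z-score of summed log2 fold changes over temperatures) in this document: synchronized HeLa Kyoto cells, proteins quantified by TMT10plex mass spectrometry, three biological replicates, mitosis taken 0.5 h after nocodazole release, G1/S directly after double thymidine block.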

Take “MAAPRVFPLSCAVQQYAWGKMGSNSEVARLLASSDPLAQIAEDKPYAELWMGTHPRGDAKILDNRISQKTLSQWIAENQDSLGSKVKDTFNGNLPFLFKVLSVETPLSIQAHPNKELAEKLHLQAPQHYPDANHKPEMAIALTPFQGLCGFRPVEEIVTFLKKVPEFQFLIGDEAATHLKQTMSHDSQAVASSLQSCFSHLMKSEKKVVVEQLNLLVKRISQQAAAGNNMEDIFGELLLQLHQQYPGDIGCFAIYFLNLLTLKPGEAMFLEANVPHAYLKGDCVECMACSDNTVRAGLTPKFIDVPTLCEMLSYTPSSSKDRLFLPTRSQEDPYLSIYDPPVPDFTIMKTEVPGSVTEYKVLALDSASILLMVQGTVIASTPTTQTPIPLQRGGVLFIGANESVSLKLTEPKDLLIFRACCLL [MPI]”: the “solubility change mitosis (log2)” value in the data set on HeLa Kyoto [1] was -0.154. In addition, the thermal stability score in the data set on HeLa Kyoto [2] (setting [5]) is -0.708; with HeLa Kyoto [2] (cell cycle stage: mitosis) it was -0.365. In the data set with HeLa Kyoto [3], the “solubility in G1/S (log2)” value is 0.389. Besides, the values for the melting temperature in the data set on HeLa Kyoto [4] (cell cycle stage: G1/S) and with HeLa Kyoto [4] (cell cycle stage: mitosis) were 50.7 °C and 50.4 °C, respectively.
Take “MAAPSGGVNCEEFAEFQELLKVMRTIDDRIVHELNTTVPTASFAGKIDASQTCKQLYESLMAAHASRDRVIKNCIAQTSAVVKNLREEREKNLDDLTLLKQLRKEQTKLKWMQSELNVEEVVNDRSWKVFNERCRIHFKPPKNE [CCDC58]”: the “solubility change mitosis (log2)” value in the data set on HeLa Kyoto [1] stood at 0.251. Besides, the thermal stability score was -0.935 in the data set with HeLa Kyoto [2] (setting [5]) and -0.43 in the data set on HeLa Kyoto [2] (cell cycle stage: mitosis). The “solubility in G1/S (log2)” value in the data set on HeLa Kyoto [3] turned out to be 0.6. Besides, the melting temperature with HeLa Kyoto [4] (cell cycle stage: G1/S) came out at 53.3 °C; with HeLa Kyoto [4] (cell cycle stage: mitosis), 52.6 °C.
In the case of “MAAPSWRGARLVQSVLRVWQVGPHVARERVIPFSSLLGFQRRCVSCVAGSAFSGPRLASASRSNGQGSALDHFLGFSQPDSSVTPCVPAVSMNRDEQDVLLVHHPDMPENSRVLRVVLLGAPNAGKSTLSNQLLGRKVFPVSRKVHTTRCQALGVITEKETQVILLDTPGIISPGKQKRHHLELSLLEDPWKSMESADLVVVLVDVSDKWTRNQLSPQLLRCLTKYSQIPSVLVMNKVDCLKQKSVLLELTAALTEGVVNGKKLKMRQAFHSHPGTHCPSPAVKDPNTQSVGNPQRIGWPHFKEIFMLSALSQEDVKTLKQYLLTQAQPGPWEYHSAVLTSQTPEEICANIIREKLLEHLPQEVPYNVQQKTAVWEEGPGGELVIQQKLLVPKESYVKLLIGPKGHVISQIAQEAGHDLMDIFLCDVDIRLSVKLLK [ERAL1]”, the “solubility change mitosis (log2)” value with HeLa Kyoto [1] is -0.061. Moreover, the thermal stability score is -1.87 with HeLa Kyoto [2] (setting [5]) and -1.48 with HeLa Kyoto [2] (cell cycle stage: mitosis). In the data set with HeLa Kyoto [3], the “solubility in G1/S (log2)” value was 0.33. Also, the values for the melting temperature in the data set with HeLa Kyoto [4] (cell cycle stage: G1/S) and in the data set with HeLa Kyoto [4] (cell cycle stage: mitosis) were 51.2 °C and 50.9 °C, respectively.
With “MAAQKINEGLEHLAKAEKYLKTGFLKWKPDYDSAASEYGKAAVAFKNAKQFEQAKDACLREAVAHENNRALFHAAKAYEQAGMMLKEMQKLPEAVQLIEKASMMYLENGTPDTAAMALERAGKLIENVDPEKAVQLYQQTANVFENEERLRQAVELLGKASRLLVRGRRFDEAALSIQKEKNIYKEIENYPTCYKKTIAQVLVHLHRNDYVAAERCVRESYSIPGFNGSEDCAALEQLLEGYDQQDQDQVSDVCNSPLFKYMDNDYAKLGLSLVVPGGGIKKKSPATPQAKPDGVTATAADEEEDEYSGGLC [NAPG]”, the “solubility change mitosis (log2)” value in the data set with HeLa Kyoto [1] turned out to be 0.178. In addition, the thermal stability score is -0.512 with HeLa Kyoto [2] (setting [5]) and 0.117 with HeLa Kyoto [2] (cell cycle stage: mitosis). Moreover, in the data set on HeLa Kyoto [3], the “solubility in G1/S (log2)” value came out at 0.528. The melting temperature with HeLa Kyoto [4] (cell cycle stage: G1/S) amounted to 49.6 °C; with HeLa Kyoto [4] (cell cycle stage: mitosis) it was 49.9 °C.
As for “MAARLVSRCGAVRAAPHSGPLVSWRRWSGASTDTVYDVVVSGGGLVGAAMACALGYDIHFHDKKILLLEAGPKKVLEKLSETYSNRVSSISPGSATLLSSFGAWDHICNMRYRAFRRMQVWDACSEALIMFDKDNLDDMGYIVENDVIMHALTKQLEAVSDRVTVLYRSKAIRYTWPCPFPMADSSPWVHITLGDGSTFQTKLLIGADGHNSGVRQAVGIQNVSWNYDQSAVVATLHLSEATENNVAWQRFLPSGPIALLPLSDTLSSLVWSTSHEHAAELVSMDEEKFVDAVNSAFWSDADHTDFIDTAGAMLQYAVSLLKPTKVSARQLPPSVARVDAKSRVLFPLGLGHAAEYVRPRVALIGDAAHRVHPLAGQGVNMGFGDISSLAHHLSTAAFNGKDLGSVSHLTGYETERQRHNTALLAATDLLKRLYSTSASPLVLLRTWGLQATNAVSPLKEQIMAFASK [COQ6]”, the “solubility change mitosis (log2)” value with HeLa Kyoto [1] was -0.0137. In addition, the thermal stability score in the data set with HeLa Kyoto [2] (setting [5]) was 1.7; in the data set with HeLa Kyoto [2] (cell cycle stage: mitosis), 2.05. The “solubility in G1/S (log2)” value with HeLa Kyoto [3] is -0.0254. In addition, the values for the melting temperature in the data set with HeLa Kyoto [4] (cell cycle stage: G1/S) and in the data set on HeLa Kyoto [4] (cell cycle stage: mitosis) were 54.8 °C and 55.1 °C, respectively.
